# Primed or numbered codes have the meaning given here. [ ]: non-standard residue; d: D form. α′‑methyl‑α′,β′‑epoxide = C-terminal α′-methyl-α′,β′-epoxyketone; hPhe = N[C@@H](CCc1ccccc1)C(=O)O; Nle = CCCC[C@H](N)C(=O)O
# Tests used:
# [1] = target: proteasome in bovine aortic endothelial (BAE) cells (bovine); assay: cell-based or functional assay
# [2] = target: proteasome in bovine aortic endothelial (BAE) cells (bovine); assay: cell-based or functional assay; remark: listed apart in the source
Binder,"IC50, inhibition of BAE cell proliferation [1] [nM]","IC50, inhibition of BAE cell proliferation ([methyl-3H]-thymidine incorporation) [2] [nM]"
"Ac-GPFL-{α′‑methyl‑α′,β′‑epoxide} [Ac-GPFL-Ex]",58000,
"Ac-ALLL-{α′‑methyl‑α′,β′‑epoxide} [Ac-ALLL-epoxide]",,83
"Ac-LLFL-{α′‑methyl‑α′,β′‑epoxide} [Ac-LLFL-epoxide]",,7
"isooctanoyl-Pro-Phe-Leu-{α′,β′‑epoxide with α′‑methyl (epoxyketone)} (also: C-terminal Leu as α′,β′-epoxyketone (epoxide) with α′-methyl substituent) [Isooctanioc-PFL-Ex]",600,
"Ac-LLAL-{α′‑methyl‑α′,β′‑epoxide} [Ac-LLAL-epoxide]",,34
"Ac-LFLL-{α′‑methyl‑α′,β′‑epoxide} [Ac-LFLL-epoxide]",,16
"Ac-LALL-{α′‑methyl‑α′,β′‑epoxide} [Ac-LALL-epoxide]",,700
"Ac-[Nle]PFL-{α′‑methyl‑α′,β′‑epoxide} [Ac-NorLPFL-Ex]",53000,
"{N‑dimethylaminobenzoyl}-Pro-Phe-Leu-{α′,β′‑epoxide with α′‑methyl (epoxyketone)} (also: C-terminal Leu as α′,β′-epoxyketone (epoxide) with α′-methyl substituent) [N-dimethylaminobenzoyl-PFL-EX]",400,
"Ac-[hPhe]LFL-{α′‑methyl‑α′,β′‑epoxide} [compound 16]",,20
"pyrazinecarbonyl-Pro-Phe-Leu-{α′,β′‑epoxide with α′‑methyl (epoxyketone)} (also: C-terminal Leu as α′,β′-epoxyketone (epoxide) with α′-methyl substituent) [Pyrazinecarbonyl-PFL-Ex]",400,

# — patent US20040266664A1 (YALE UNIVERSITY, published 2004)
